{"source": "patent US20210371520A1", "about": "(AGILENT TECHNOLOGIES, published 2021)", "target": "T1, human LAG-3 (Lymphocyte-Activation Gene 3) protein (human, UniProt P18627 23-525)", "T1 construct": "whole, on cells; Endogenous LAG-3 in normal and tumour tissue sections (IHC), not a recombinant protein; also called CD223", "T1 sequence (looked up)": "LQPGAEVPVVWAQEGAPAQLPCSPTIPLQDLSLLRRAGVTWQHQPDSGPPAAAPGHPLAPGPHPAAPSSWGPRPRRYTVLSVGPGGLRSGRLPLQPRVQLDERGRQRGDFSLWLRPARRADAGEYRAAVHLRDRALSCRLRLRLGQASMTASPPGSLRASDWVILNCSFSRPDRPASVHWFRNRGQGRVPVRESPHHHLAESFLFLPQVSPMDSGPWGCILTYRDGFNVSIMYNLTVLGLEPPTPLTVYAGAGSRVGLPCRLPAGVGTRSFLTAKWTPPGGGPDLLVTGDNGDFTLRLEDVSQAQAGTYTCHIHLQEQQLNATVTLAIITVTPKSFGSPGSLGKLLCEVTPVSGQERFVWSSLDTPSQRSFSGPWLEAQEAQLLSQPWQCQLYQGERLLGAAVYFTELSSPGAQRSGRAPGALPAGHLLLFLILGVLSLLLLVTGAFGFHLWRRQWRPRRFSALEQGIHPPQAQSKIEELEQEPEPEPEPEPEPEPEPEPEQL", "assay": "double IHC staining on normal tonsil", "from_the_text": "FIG. 9 illustrates tumor tissue samples of Lung Squamous cell Carcinoma (SQC) (FIG. 10) and kidney renal cell carcinoma (RCC) (FIG. 11); the double IHC staining method follows the protocol of Petersen, et al. 2018 [18] using the EnVision FLEX+™ system in a sequential manner, where the exemplary LAG-3 antibody, clone 12H8 (HRP DAB chromagen) constitutes the first layer followed by a sulfuric acid block step and adding an extra EnVision FLEX+™ staining layer on top with PD1 antibody, clone NAT105 (magenta chromogen)); and FIG. 9 illustrates that LAG-3 is co-localized with the PD1 T cell marker in a subpopulation of activated T cells in the germinal center of the tonsil. Other cells belonging to the activated T cell population is only stained by PD1. The B lymphocytes in the germinal center are negative for both the LAG-3 and the PD1 antibody, illustrating the specificity of both these antibodies: (Red arrow: strongly LAG-3 positive, DAB overshadows magenta PD1. Green arrow: weakly pos LAG-3 with both DAB membrane and DAB golgi and PD1 magenta stain visible). PD1 positive, LAG-3 negative T cells: (orange arrow).", "data": [{"binder": "rabbit anti-human LAG-3 antibody, clone 12H8 (antibody, V domains shown, also called LAG-3 clone 12H8; exemplary LAG-3 antibody) VH: QSVKESEGGLFKPTDTLTLTCTVSGIDLSSGILVWVRQAPGSGLEWIGGIDANGRAYYASWAKSRSTITRNTNENTVTLKMTSLTAADTATYFCAGGAWNIWGPGTLVTVSS VL: AQVLTQTPSPVSAAVGGTVTIKCQSSQSVYDSNTLAWFQQKPGQPPKLLMYSASTLAFGVPSRFSGSGSGTQFTLTISDLECADAATYYCLGSYDCSSVDCTAFGGGTEVVVK", "values": [{"measurement": "binding result", "result": "binds"}]}]}
